Reference: the supplement of paper PMC10201428
± gives the standard deviation of the averaged measurements.

B1: library; a variant is named by its letters at N, in order (parent)
chain: ACATTTGTTGATACAACCATAAAATGATAATTACACCCATAAATTGATAATTATCACACCCANNNNNNNNNNNNNNCTCTGATCATAGTCAGACCAACATTGCTACGACCCGTATTCGCACCGACAC

Legend:
[1] = variants of: B1; test: relative integration efficiency (T-RL orientation) vs wild-type transposon end (log2 (normalized fold change)); transposon end mutated: right end (5 bp flank + 75 bp right end); higher = more efficient transposition; settings: with VchCAST RNA-guided transposition machinery (E. coli BL21(DE3) host, lacZ target)
Description: (§1)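 Pooled, barcoded VchCAST (Tn6677) mini-transposon donor libraries; each variable transposon-end sequence sits in a fixed pDonor mini-transposon context (10-bp barcode and cargo not included). Left- or right-end libraries were co-transformed with pEffector (TniQ-Cascade, TnsABC, lacZ crRNA, T7, 0.1 mM IPTG) into E. coli BL21(DE3) and grown 18 h at 37 C. T-LR and T-RL junction amplicons were sequenced; output/input barcode fold change was normalised to the mean of four wild-type barcodes and log2-transformed. Two biological replicates; zero-count/undetected variants carry floor values (-10 / -15), censored here. Barcode uncoupling by PCR recombination adds noise.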

[2] = variants of: B1; test: relative integration efficiency (T-LR orientation) vs wild-type transposon end (log2 (normalized fold change)); transposon end mutated: right end (5 bp flank + 75 bp right end); higher = more efficient transposition; settings: with VchCAST RNA-guided transposition machinery (E. coli BL21(DE3) host, lacZ target)
Description: as §1

| Variant | relative integration efficiency (log2) [1] | relative integration efficiency (log2) [2] |
| --- | --- | --- |
| TAAATTGATCTTGC | 0.011 ± 0.051 | 0.816 ± 0.13 |
| TAAATTGATATTGC A53G | -0.385 ± 0.25 | -0.269 ± 0.048 |
| TAAATTGATATTGC A53C | -0.408 ± 0.19 | 0.07 ± 0.052 |
| TAAATTGATATTGC A53T | -0.33 ± 0.038 | -0.318 ± 0.48 |
| TAAATTGGTATTGC | 0.0075 ± 0.082 | 0.963 ± 0.065 |
| TAAATTGATATTGC G10A | 0.115 ± 0.017 | -0.464 ± 0.17 |
| TAAATTGATATTGC G10C | -0.405 ± 0.069 | -1.81 ± 0.24 |
| TAAATTGATATTGC G10T | -0.7118 ± 0.001 | -1.93 ± 0.22 |
| TAAATTGATATTGC A27G | -0.495 ± 0.11 | -0.445 ± 0.25 |
| TAAATTGATATTGC A27C | -0.753 ± 0.18 | -0.281 ± 0.16 |
| TAAATTGATATTGC A27T | -0.915 ± 0.17 | -0.49 ± 0.05 |
| TAAATTGCGCGTGC | -0.618 ± 0.12 | 1.7 ± 0.1 |
| TAAATTGATATTGC T52A | -0.149 ± 0.095 | 0.276 ± 0.4 |
| TAAATTGATATTGC T52C | -0.34 ± 0.15 | -0.286 ± 0.39 |
| TAAATTGATATTGC T52G | -0.506 ± 0.15 | -0.16 ± 0.37 |
| TATATTGATATCTC C59A | -0.231 ± 0.072 | -0.123 ± 0.17 |
| TAAATTGATTTTGC | -0.0591 ± 0.014 | 0.338 ± 0.22 |
| TAAATTGATATTGC A3T | -0.114 ± 0.0076 | -0.195 ± 0.15 |
| TAAATTGATATTGC C55A | -0.759 ± 0.066 | 0.402 ± 0.41 |

| Variant | relative integration efficiency (log2) [1] | relative integration efficiency (log2) [2] |
| --- | --- | --- |
| TAAATTGATATTGC C55T | -0.293 ± 0.17 | 0.175 ± 0.29 |
| TAAATTGATATTGC C55G | -0.145 ± 0.21 | 0.0542 ± 0.17 |
| TAAATTGATATTGC A24C | 0.238 ± 0.12 | 0.1 ± 0.21 |
| TAAATTGATATTGC A24T | -0.125 ± 0.1 | -0.0829 ± 0.28 |
| TAAATTGATATTGC A24G | 0.266 ± 0.047 | 0.156 ± 0.052 |
| TAAATTGATATTGC A19C | -1.18 ± 0.12 | -1.16 ± 0.11 |
| TAAATTGATATTGC A19T | -0.574 ± 0.03 | -0.267 ± 0.084 |
| TAAATTGATATTGC A19G | -0.155 ± 0.081 | -0.378 ± 0.051 |
| TAAATTGATATTGC T45C | -0.0459 ± 0.091 | -0.285 ± 0.21 |
| TAAATTGATATTGC T45G | -0.479 ± 0.082 | -0.522 ± 0.1 |
| TAAATTGATATTGC T45A | -0.307 ± 0.056 | -0.351 ± 0.41 |
| TAAATTGATATTGC A23T | 1.42 ± 0.079 | 1.34 ± 0.053 |
| TAAATTGATATTGC A23G | -0.0394 ± 0.13 | -0.227 ± 0.71 |
| TAAATTGATATTGC A23C | 0.346 ± 0.047 | 0.198 ± 0.087 |
| AAAATTGATATTGC A62T | -0.47 ± 0.19 | 1.67 ± 0.025 |
| TACCTTGATATTGC | 1.35 ± 0.074 | 3.9016 ± 0.0014 |
| TAAATTGATATTGC A62G | -0.0391 ± 0.14 | 0.97 ± 0.12 |
| TAAATTGATATTGC A62C | -0.726 ± 0.016 | 2.18 ± 0.2 |
| TAAATTGATATTGC A62T | -0.435 ± 0.12 | 1.36 ± 0.086 |

| Variant | relative integration efficiency (log2) [1] | relative integration efficiency (log2) [2] |
| --- | --- | --- |
| TAAATTGATATTGC G26A | -0.553 ± 0.15 | -0.268 ± 0.011 |
| TAAATTGATATTGC G26T | -0.472 ± 0.11 | -0.0416 ± 0.43 |
| TAAATTGATATTGC G26C | -1.71 ± 0.29 | -1.36 ± 0.46 |
| TAAATTGCTATTGC | -0.207 ± 0.014 | 0.841 ± 0.12 |
| TAAATTGATATTGC T25C | -0.146 ± 0.0084 | -0.488 ± 0.0056 |
| TAAATTGATATTGC T25A | -0.524 ± 0.069 | -0.8 ± 0.34 |
| TAAATTGATATTGC T25G | -0.25 ± 0.041 | -0.0581 ± 0.34 |
| TAAATTGATCGGTC | -0.277 ± 0.017 | 1.42 ± 0.094 |
| TAAATTGATATTGC T8C | -0.808 ± 0.29 | -2.19 ± 0.042 |
| TAAATTGATATTGC T8G | -5.89 ± 0.83 | -3.6 ± 0.47 |
| TAAATTGATATTGC T8A | -0.814 ± 0.13 | -1.99 ± 0.69 |
| TAAATTGATATTGC A42T | 0.0512 ± 0.029 | -0.0993 ± 0.22 |
| TAAATTGATATTGC A42G | -0.807 ± 0.11 | -1.01 ± 0.016 |
| TAAATTGATATTGC A42C | -0.945 ± 0.052 | -0.708 ± 0.35 |
| TAAATTGATATTGC C59T | -0.0651 ± 0.0017 | 0.538 ± 0.076 |
| TAAATTGATATTGC C59A | 0.048 ± 0.078 | -0.0286 ± 0.31 |
| TAAATTGATATTGC C59G | -0.141 ± 0.043 | 0.747 ± 0.024 |
| TAAATTGATCGTGC | -0.217 ± 0.047 | 0.973 ± 0.038 |
| TAAATTTATATTGC | -0.361 ± 0.18 | 1.7 ± 0.14 |
